In assay [1] the target is T1, caspase-3 (Homo sapiens, UniProt P42574).
T1 construct: purchased BioMol
T1 sequence (P42574 29-175 limits assumed): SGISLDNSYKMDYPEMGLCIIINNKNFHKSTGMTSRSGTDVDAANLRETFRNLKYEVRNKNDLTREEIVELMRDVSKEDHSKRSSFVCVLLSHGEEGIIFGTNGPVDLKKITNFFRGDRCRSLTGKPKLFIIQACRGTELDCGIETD
T1 sequence (P42574 176-277 limits assumed): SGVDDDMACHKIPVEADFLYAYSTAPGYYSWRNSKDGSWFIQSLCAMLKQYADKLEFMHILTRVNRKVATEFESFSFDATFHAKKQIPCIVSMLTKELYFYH
It counts as biochemical.

Assay [2] has as its target cyclic AMP dependent protein kinase catalytic subunit (Homo sapiens, UniProt P17612). The conditions noted are these: cited from earlier work.
Assay [3] addresses cyclic AMP-dependent protein kinase (Homo sapiens, UniProt P17612). The conditions noted are these: cited from earlier work.
Assay [4] addresses T2, enterokinase (Bos taurus, UniProt P98072).
T2 construct: purchased Invitrogen
Kind of assay: Enterokinase assay with firefly luciferases having an internal enterokinase site. Type of assay: biochemical.

Assay [5] has as its target T1, caspase-3. Description: Caspase-3 activation of circularly permuted firefly luciferase having a caspase-3 site. Type of assay: biochemical. As to conditions: TnT rabbit reticulocyte lysate.

Entries after “also recorded” stand apart in the source; their conditions may differ.

T2 sequence (P98072 801-1035 limits assumed): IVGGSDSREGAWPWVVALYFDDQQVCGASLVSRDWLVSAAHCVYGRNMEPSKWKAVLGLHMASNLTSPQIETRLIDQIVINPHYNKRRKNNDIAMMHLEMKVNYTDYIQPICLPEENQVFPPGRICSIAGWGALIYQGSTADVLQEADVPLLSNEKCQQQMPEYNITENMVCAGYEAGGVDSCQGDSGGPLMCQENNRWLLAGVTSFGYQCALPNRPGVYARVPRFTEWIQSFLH

On to Ac-DEVD-CHO, for which the “caspase-3 induced decrease of Cbg69DEVD luciferase activity in presence of caspase inhibitor” value in assay [1] is on record as “decrease in activity was not observed”.

Take LRRASLG: in assay [2], the “reduction of activity on addition of kinase catalytic subunit” value is reported as 30%.

For “RRFS: Photinus pyralis luciferase, valine 217 mutated to arginine generating site RRFS (Sala-Newby et al.)”, the “decrease of activity when phosphorylated” value in assay [3] is “up to 80%”.

B1: WT enzyme: parental (unmodified) firefly luciferase luc+ (protein)
chain: MEDAKNIKKGPAPFYPLEDGTAGEQLHKAMKRYALVPGTIAFTDAHIEVDITYAEYFEMSVRLAEAMKRYGLNTNHRIVVCSENSLQFFMPVLGALFIGVAVAPANDIYNERELLNSMGISQPTVVFVSKKGLQKILNVQKKLPIIQKIIIMDSKTDYQGFQSMYTFVTSHLPPGFNEYDFVPESFDRDKTIALIMNSSGSTGLPKGVALPHRTACVRFSHARDPIFGNQIIPDTAILSVVPFHHGFGMFTTLGYLICGFRVVLMYRFEEELFLRSLQDYKIQSALLVPTLFSFFAKSTLIDKYDLSNLHEIASGGAPLSKEVGEAVAKRFHLPGIRQGYGLTETTSAILITPEGDDKPGAVGKVVPFFEAKVVDLDTGKTLGVNQRGELCVRGPMIMSGYVNNPEATNALIDKDGWLHSGDIAYWDEDEHFFIVDRLKSLIKYKGYQVAPAELESILLQHPNIFDAGVAGLPDDDAGELPAAVVVLEHGKTMTEKEIVDYVASQVTTAKKLRGGVVFVDEVPKGLTGKLDARKIREILIKAKKGGKIAV
Take B1: the “effect of enterokinase on luciferase activity” value in assay [4] was “no effect; also recorded: not affected; also recorded: not altered”. Further, the “luminescence reading (Turner 20/20 luminometer)” value turned out to be 2561 in assay [4] (0 minutes, with 1 U EKMax); 2517 in assay [4] (0 minutes, without EKMax); 2905 in assay [4] (15 minutes, with 1 U EKMax); 2855 in assay [4] (15 minutes, without EKMax); 3190 in assay [4] (30 minutes, with 1 U EKMax); 2987 in assay [4] (30 minutes, without EKMax). For the same molecule, in assay [5], the “effect of caspase-3 on activity” value is listed as “not affected”.

The values are drawn from patent US9290745B2, “Luciferase biosensor” (PROMEGA CORPORATION, priority 2003, dated 2016).
